This note sets out measurements from paper doi:10.1101/746693 (bioRxiv, 2019).

The assay has as its target T1, Proteinase Activated Receptor-4 (PAR4)-YFP, wild type (human, UniProt Q96RI0 48-385).
T1 sequence (looked up): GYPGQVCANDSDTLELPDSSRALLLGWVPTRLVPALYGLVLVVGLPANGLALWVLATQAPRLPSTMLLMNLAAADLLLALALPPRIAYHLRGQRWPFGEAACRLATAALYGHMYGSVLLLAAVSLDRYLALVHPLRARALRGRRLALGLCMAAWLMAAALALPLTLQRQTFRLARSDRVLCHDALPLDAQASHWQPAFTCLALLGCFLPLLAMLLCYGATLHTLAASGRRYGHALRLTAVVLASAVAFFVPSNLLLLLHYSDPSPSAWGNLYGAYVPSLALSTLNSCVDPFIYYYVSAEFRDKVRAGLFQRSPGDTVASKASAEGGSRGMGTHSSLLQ
The assay is described as follows: FRET or BRET. A general note: Bioluminescence resonance energy transfer reports proximity on the nanometre scale.

B1: β-arrestin-1-renilla luciferase (natural protein, UniProt P49407 1-418, looked up)
chain: MGDKGTRVFKKASPNGKLTVYLGKRDFVDHIDLVDPVDGVVLVDPEYLKERRVYVTLTCAFRYGREDLDVLGLTFRKDLFVANVQSFPPAPEDKKPLTRLQERLIKKLGEHAYPFTFEIPPNLPCSVTLQPGPEDTGKACGVDYEVKAFCAENLEEKIHKRNSVRLVIRKVQYAPERPGPQPTAETTRQFLMSDKPLHLEASLDKEIYYHGEPISVNVHVTNNTNKTVKKIKISVRQYADICLFNTAQYKCPVAMEEADDTVAPSSTFCKVYTLTPFLANNREKRGLALDGKLKHEDTNLASSTLLREGANREILGIIVSYKVKVKLVVSRGGLLGDLASSDVAVELPFTLMHPKPKEEPPHREVPENETPVDTNLIELDTNDDDIVFEDFARQRLKGMKDDKEEEEDGTGSPQLNNR
Turning to B1, the “EC50 of (N-Me-A)-YPGKF-NH2 for recruitment (BRET)” value is 6.8 µM, the “EC50 of A-(N-Me-Y)-PGKF-NH2 for recruitment (BRET)” value was 14.2 µM, the “EC50 of AYPG-(Nα-Me-K)-F-NH2 for recruitment (BRET)” value is 12.2 µM and the “EC50 of AYPGK-(N-Me-F)-NH2 for recruitment (BRET)” value was 10.4 µM. Besides, the “EC50 of Ac-AYPGKF-NH2 for recruitment (BRET)” value stood at 15 µM and the “EC50 of VYPGKF-NH2 for recruitment (BRET)” value is 33.8 µM.
